Laboratory results reported in patent US20070010428A1, “Inhibitors of signal transduction and activator of transcription 3” (priority 2004, published 2007).

Assays:
Stat3 = Stat3 (UniProt P40763); test: fluorescence polarization competition
[1] = target: Stat3 in IL-6 stimulated HepG2 hepatoma cells (UniProt P40763); test: cell-based or functional assay
Chain of Stat3 in IL-6 stimulated HepG2 hepatoma cells (P40763 2-770 limits assumed): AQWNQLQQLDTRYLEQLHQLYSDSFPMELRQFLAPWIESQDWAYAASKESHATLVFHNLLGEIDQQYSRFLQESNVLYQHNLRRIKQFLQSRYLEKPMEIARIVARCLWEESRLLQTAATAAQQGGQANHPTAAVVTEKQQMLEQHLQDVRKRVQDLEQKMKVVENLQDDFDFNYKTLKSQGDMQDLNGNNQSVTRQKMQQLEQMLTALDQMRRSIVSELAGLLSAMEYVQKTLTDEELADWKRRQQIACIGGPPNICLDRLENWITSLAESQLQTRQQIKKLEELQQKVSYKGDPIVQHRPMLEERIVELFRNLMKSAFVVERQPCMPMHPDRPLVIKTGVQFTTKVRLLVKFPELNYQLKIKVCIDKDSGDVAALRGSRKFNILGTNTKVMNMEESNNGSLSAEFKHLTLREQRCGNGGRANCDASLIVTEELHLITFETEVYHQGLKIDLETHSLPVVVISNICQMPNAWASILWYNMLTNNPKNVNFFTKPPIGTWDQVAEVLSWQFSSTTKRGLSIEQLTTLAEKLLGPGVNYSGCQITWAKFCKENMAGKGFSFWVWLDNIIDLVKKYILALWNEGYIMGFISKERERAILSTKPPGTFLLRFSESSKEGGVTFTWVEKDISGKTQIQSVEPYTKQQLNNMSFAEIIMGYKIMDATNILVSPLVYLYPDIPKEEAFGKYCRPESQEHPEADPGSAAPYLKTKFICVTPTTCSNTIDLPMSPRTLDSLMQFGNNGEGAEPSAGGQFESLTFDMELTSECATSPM

Chain of Stat3 (P40763 whole entry): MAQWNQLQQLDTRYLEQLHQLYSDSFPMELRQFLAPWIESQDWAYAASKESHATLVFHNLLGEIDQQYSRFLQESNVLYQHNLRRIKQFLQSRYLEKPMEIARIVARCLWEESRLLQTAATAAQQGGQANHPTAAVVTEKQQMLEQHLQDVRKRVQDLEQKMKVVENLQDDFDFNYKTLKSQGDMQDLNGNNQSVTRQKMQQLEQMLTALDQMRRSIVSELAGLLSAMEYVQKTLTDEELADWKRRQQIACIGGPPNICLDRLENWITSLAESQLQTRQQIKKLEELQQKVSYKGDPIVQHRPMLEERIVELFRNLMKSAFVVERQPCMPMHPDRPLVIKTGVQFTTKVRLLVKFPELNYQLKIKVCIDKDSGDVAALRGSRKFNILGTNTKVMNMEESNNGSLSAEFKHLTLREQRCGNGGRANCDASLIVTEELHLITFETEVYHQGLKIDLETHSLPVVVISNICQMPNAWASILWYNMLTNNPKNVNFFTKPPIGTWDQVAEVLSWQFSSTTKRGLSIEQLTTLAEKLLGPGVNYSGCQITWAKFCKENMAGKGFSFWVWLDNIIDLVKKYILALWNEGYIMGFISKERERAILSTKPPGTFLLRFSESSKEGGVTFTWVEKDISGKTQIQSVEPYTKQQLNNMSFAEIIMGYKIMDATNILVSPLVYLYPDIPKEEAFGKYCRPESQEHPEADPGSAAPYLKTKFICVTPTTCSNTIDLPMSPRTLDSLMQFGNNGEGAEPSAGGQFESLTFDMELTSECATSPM

Substance	IC50 (Stat3)	also measured
Ac-pTyr-Haic-Gln-Thr-NH2 (10, DRCIV-35B)	200 nM	
Ac-pTyr-Leu-Pro-Gln-Thr-Val-mts (peptide)		IL-6 stimulated luciferase reporter under the Stat3-responsive alpha2-macroglobulin promoter, HEPG2 cells, peptide at 50 and 100 µM (% of that of IL-6) [1]: 60 to 70
Ac-pTyr-Leu-methanoPro-Gln-Thr-NH2 (14, DRCIV-39B)	200 nM	
F2PmCinn-Cha-Pro-Gln-NHBn (8, PM-88D)	2000 nM	
F2PmCinn-Leu-Pro-Gln-Thr-Val-Ala-Ala-Val-Leu-Leu-Pro-Val-Leu-Leu-Ala-Ala-Pro-NH2 (peptide; the values are: luciferase activity remaining)		IL-6 stimulated luciferase reporter under the Stat3-responsive alpha2-macroglobulin promoter, HEPG2 cells, peptide at 50 µM [1]: 50%; IL-6 stimulated luciferase reporter under the Stat3-responsive alpha2-macroglobulin promoter, HEPG2 cells, peptide at 100 µM [1]: 25%
pCinn-Cha-Pro-Gln-NHBn (7, PM-66D)	50 nM	
pCinn-Cha-methanoPro-Gln-NHBn (15, PM-84D)	110 nM	
pCinn-Leu-Pro-Gln-Thr-NH2 (5, PM-50D)	110 nM	
pInd-Cha-Pro-Gln-NHBn (9, PM-67D)	100 nM	
